The values below come from PMC6351562, “Structure, function, and inhibition of drug reactivating human gut microbial β-glucuronidases” (Scientific Reports, 2019).

Substrate in series [1]: O=C(O)[C@H]1O[C@@H](Oc2ccc([N+](=O)[O-])cc2)[C@H](O)[C@@H](O)[C@@H]1O
The series is described as follows: purified protein, by the assay type. The settings on record: other: pNPG as substrate.

Substrate in series [2]: O=C(O)[C@H]1O[C@@H](Oc2ccc([N+](=O)[O-])cc2)[C@H](O)[C@@H](O)[C@@H]1O
The series is described as follows: purified protein, by the assay type. The series is classed as biochemical, Ruminococcus gnavus. As to conditions: other: pNPG as substrate, optimal pH 6.5, apparent value estimated at low pNPG concentrations, 37.0 °C.

“And” between values parts separate entries of the source, which are not always exact repeats. Identical values can stand only once. Marks after values point to notes of the source that are not given here.

B1: Bacteroides dorei GUS (BdGUS) (Phocaeicola dorei CL02T12C06) (protein)
chain: SEISITDSWKYKAENDERFSSMDWNDSDWVTVDLPHTWNAGDVIDEQRGYRRGISWYRKKLFIPSEARDKKITLRFDGVASKADVYLNGKLLKTHLGAYTAFGVDITDICEVGKENLLAVKVDNSSSLGEILPPVSGDFSIFGGIYRRVFLQWTEKVHFVTEPYAAVPVRIQTPEVSVSEASMQIVAFLKNDFTDTKHVHVNVFLCDEMNRIVKEKQLKLKLIPGRKYPISTSVGRIENPHLWSPELPYLYTVKVQVCDAKNGEMYQEVISPVGFRWFSVDKTGFYLNGKYLKLRGAARHQDYAGLGTAIPVEMNRRDMRLLKEMGANFVRISHYPQDPEIYRACDELGLIVWSEICVVNEVRKNAAFAHNCKEMLKEMILQNYNHPSVVLWGAMNELWDYHKQAIALARELEALKKELDPYRLSCVAFHAFTWEKPYTQSSKEMFSISDVNGVNVYESWYQGDSATIAPMFDKFCSYSTAKPRFLSEFGAGSDERIHSYTPRTFDFTPEFQLDFNRRYINEMEKRPDYIGYSIWNLVDFQVDGRGDSKPNLNQKGMLTEDRRKKEIYYYCQARWSDIPMIHIAGADWTKRVEICDDSINVRKISVFSNQKTVELIHNGKSLGVREVVNGEAVFAVPFINGENLLDARSGALSDRLKIQMKLLSSRLTDSDVLLDGLCINLGQEHCYFIDPQLQEIWIPDKPYTKGSWGYMDGKPFNSWPGSSHDGVRYGVGADIKNTFLEPLFQTFLIGTTCYRLDVPDGVYEIGFYFTEPFSKDERKNIVRTGVSAEGQRVFDVSVNGEKLIDSLNLADSYGEQTAVVKTLVVNVRNHEGLEILLSPQKGQGVISGLKVKKIR
Regarding B1, in series [1] (optimal pH 6.0, 37 °C), the Km (as a rule, the concentration of substrate that gives half-maximal velocity) is 1400 ± 100 µM; the kcat (usually the maximal rate divided by the concentration of active sites) turned out to be 7.5 ± 0.4 s⁻¹; the kcat/Km – broadly, the turnover number divided by the Michaelis constant – came out at 5200 ± 500 M⁻¹ s⁻¹.

B2: Lactobacillus rhamnosus GUS (LrGUS) (Lacticaseibacillus rhamnosus) (protein)
chain: METSLLYPVTNDQRTDQKLDGLWQFKFDEAGEGEKSGWETGFHDGVSMPVPASFNDFFTDKASREYTGDFWYSRNFFVPSAAKGKALFLRFDAVTHRATIFVNGKEIRTHEGGFLPFAADISEAVKYGAENTVVVKGNNELSREALPAGDTITLRNGKKMVRPFFDFYNYSGLNRSVHLLSLPQERVLDYTTTFALAGNDATVNYTVETNGDAPVTVSLADADGQVVATAQGKQGALQVQNAHLWQVRNAYLYTLTIQLGDDTQTPLDTYTDRIGIRTIKISGTDILVNDKPIYLKGFGRHEDSPFAGRAFDLNVEKKDFALMKWIGANSFRTSHYPYDEQVYKIADEEGFLLTDEVPAVGFKMAAAAFLGGLNQSFFKGPWLKKLHERHIDQIRDLIKRDKNHPSVLAWSLFNEPDTIDENAVPYFKQIFDESKDLDPQGRPRTFTLSEDDTIETSKVLDFPDFYMLNRYPGWYHFGGYQISDGEAGLRDEMDKWQKAGVKKPVVFTEFGADTEAGLHKLPSVMWTEEYQVEVLKMFSRVFDDYDFIKGEQVWNLADFQTVEGNMRVNGNKKGIFTRDRQPKAAAFFYHDRWNKLPLDYKAK
Regarding B2, in series [1] (optimal pH 4.5, 37 °C), the Km stood at 1500 ± 100 µM, the kcat came out at 10 ± 0.7 s⁻¹ and the kcat/Km was 6700 ± 300 M⁻¹ s⁻¹.

B3: Ruminococcus gnavus GUS (RgGUS) (Mediterraneibacter gnavus) (protein)
chain: MLEYSELYPIQNGHRMMQSLDGMWKFQFDPEEIGEKSGWENGLPAPVSMPVPSSFADFFTDHKERDYCGDFWYETEFYLPAEWRNKKIWLRFGSITHRGTVYCNGMEITSHEGGFLPVLADISTVAKPGQVNQVVVKINNELNETSLPCGATKILNNGRKLAKPYFDFFNYSGLQRSVWVIALPEESVKDYSVDYELCGTDALVKYEVVTTGEHPVIVRLLDAEGELVAETEGKEGILQVANAHLWEVRNAYLYQIVILITDGNGVLDEYREKIGIRTVRIEGTQILLNDRPVYLKGFGKHEDFSILGRGFHWGIVKRDFECLKWTNANCFRTSHYPYAEEWYQFADEEGFLIIDEVPAVGMMRSTRNFVAAGSGNYTYFFEALTVPELLKSHIADTEEMITRDKNHPSVIAWSLFNEPETITDYAYEYFKEVFAAAETYDFQSRPMTGAFEKNSKPELCKCYPLCDFICLNRYYGWYISGGPEIEEAEELFRDEMDRWKAKELNVPFVFTEFGTDTMAGLHKLPSIMWSEEYQKEYLEMNFRVFDSYEFVQGELAWNFADFQTTEGIMRVDGNHKGVFTRDRQPKAAAVVFKDRWEKKNELF
In the case of B3, in series [2], the Km is recorded as 1.4 ± 0.2^b mM, the kcat is 2.8 ± 0.3 s⁻¹ and the kcat/Km is 2000 ± 100 M⁻¹ s⁻¹.

B4: Streptococcus agalactiae GUS (SaGUS) (Streptococcus agalactiae 2603V/R) (protein)
chain: MLYPLLTKTRNTYDLGGIWNFKLGEHNPNELLPSDEVMVIPTSFNDLMVSKEKRDYIGDFWYEKVIEVPKVSEDEEMVLRFGSVTHQAKIYVDGVLVGEHKGGFTPFEVLVPECKYNNEKIKVSICANNVLDYTTLPVGNYSEIIQEDGSIKKKVRENFDFFNYAGVHRPLKLMIRPKNHIFDITITSRLSDDLQSADLHFLVETNQKVDEVRISVFDEDNKLVGETKDSRLFLSDVHLWEVLNAYLYTARVEIFVDNQLQDVYEENFGLREIEVTNGQFLLNRKPIYFKGFGKHEDTFINGRGLNEAANLMDLNLLKDMGANSFRTSHYPYSEEMMRLADRMGVLVIDEVPAVGLFQNFNASLDLSPKDNGTWNLMQTKAAHEQAIQELVKRDKNHPSVVMWVVANEPASHEAGAHDYFEPLVKLYKDLDPQKRPVTLVNILMATPDRDQVMDLVDVVCLNRYYGWYVDHGDLTNAEVGIRKELLEWQDKFPDKPIIITEYGADTLPGLHSTWNIPYTEEFQCDFYEMSHRVFDGIPNLVGEQVWNFADFETNLMILRVQGNHKGLFSRNRQPKQVVKEFKKRWMTIPHYHNKKNSVK
As for B4, in series [1] (optimal pH 6.5, 37 °C), the Km stood at 170 ± 10 µM; the kcat is 120 s⁻¹ and 122 s⁻¹; the kcat/Km was determined as 720000 ± 30000 M⁻¹ s⁻¹.

B5: Bacteroides uniformis GUS (BuGUS) (Bacteroides uniformis str. 3978 T3 ii) (protein)
chain: QRQTQTINDSWKFLKGECTAAADSAFDDSKWTSIHLPHTWNTDAYTEKDYYRGTGWYRRQLTLPQGWKEKQIILRLDAAGKSATIYINGKNVGEHAGGYTACSFNITPFLSFDTPNTLAVCVDNARQDIAPISGDFTFFGGIYRDVWLTAVPNQHFNLTNHGSDGLFISTPQVSEEQATLSIRGEVKNDAPEKATLELTHTIYRPDGTLLQTLKKNIQLKAGETYAFSNEATPVLKPELWTPETPRLYRVETTLRNRKTKTLLDQSNHYTAFRWFRFDGDEGFFLNGKPYKLRGICRHQDQKPIGPALTDEMHRRDFLLMKEMGANFIRISHYPQDDALLEMCDKLGMLAWEEIPIIDIVPNTPGYGDNCERNLREMIRQHYNHPSIITWGYMNEILLVTQRKYKTEAELKPVLERTLALANRLERVLKEEDSTRISTMAFHGSNSYNETGLSKITDIVGWNLYQGWYGGDLTGFEKFLAQQHQNHPTHPMIVSEYGAGSDKRLHSLHPRAFDFSIEYQQKYLEHYLPVLEDTPYICGGTHWNFIDFSSALRDESMPRINNKGLVYADRTPKDVYHYYQAAWRKDIPVLHIASRDWTDRAGVQQGNAPVYLPVKIYTNLSEVELFIDGISLGKQKTENYTATFEVPFSNRNPFLFAQGNYQGKTVQDGLRINFTPIPACLDANNLKGLELAVNVGSQCFFTSDESQLTWLPDQPYAAGSWGYIGGKEGTAQTEIQNTADGPLFQTLRNEIEGYRFDAPQGVYEIELLFTDIFRRNAGIAYQLDRNGQQENRESTFGISINGEVVEESLSPCKESGYFRALRKKYYITNDKEYIDIRFHSTSGTCFLNGIKLRNIY
For B5, in series [1] (optimal pH 5.5, 37 °C), the Km was 540 ± 60 µM, the kcat is 37 ± 2 s⁻¹ and the kcat/Km worked out at 71000 ± 6000 M⁻¹ s⁻¹.

B6: Faecalibacterium prausnitzii GUS (FpGUS) (Faecalibacterium duncaniae) (protein)
chain: MNRSLLYPRATTTRRLIGLDGMWRFSFDPESKGVEAGWALDLPSSLSMPVPASFCDLFTDKASREYCGDFWYETSFFVPAEWSGWDIVLRFGSVTHRARVFVNGVEVAQHEGGFLPFDATVTNIVRYNQFNKLSVLANNELSETMLPAGTTCTLADGRKIAAPYFDFYNYAGIHRPVWLMALPKERVLDYSTRYRLTETGAEIDYTVSTNGPHPVTVELYDGTTRVAESSGTTGTLVVKNARLWNVHAAYLYDLVIRIHEGSAVVDEYLDRIGIRTFEIRHGRFLLNGSPVYLRGFGRHEDADIRGRGLDLPTVKRDFELMKWIGANCFRTSHYPYAEEIYQMADEEGFLIIDEVPAVGFMQSTANFLAANQGNGRQQGFFEKETTPALLKNHKAALTDMIDRDKNHPSVIAWSLLNEPQCTSAGTEEYFKPLFELARRLDPQKRPRTYTVLMTSLPDTSKGQRFADFVSLNRYYGWYVLGGAGLADAEAAFHHEMDGWAKVLHGRPLIFTEYGTDNLSGAHKLPSVMWSAEYQNEYLEMTHAVFDHYDFVQGELVWNFADFQTTEGILRVDGNKKGIFTRQRQPKDAAYLFRKRWTTLPVDFKKRKK
On to B6, for which, in series [1] (optimal pH 6.0, 37 °C), the Km was determined as 2200 ± 300 µM, the kcat is 58 ± 4 s⁻¹ and the kcat/Km was 27000 ± 2000 M⁻¹ s⁻¹.

B7: Eubacterium eligens GUS (EeGUS) (Lachnospira eligens ATCC 27750) (protein)
chain: MLYPVLTQSRLLSDLSGVWDFKLDNGKGFEEKWYEKPLKDADTMPVPASYNDLKEGTDFRDHYGWVFYQRNISVPEYVKSQRIVLRCAAVTHYAMIYLNGKLICEHKGGFLPFEVELNDDLQDGDNLLTIAVNNVIDYTTLPVGGKANMMSGMMGGMGAGASDKPQNNPNFDFFNYCGITRPVKIYTTPETYINDITVTADIDFTKEEPSAVLNYNVEIKGKDYNNITCKVELFDEEGTKLSETEGSEGTFEISNVRLWQPLNAYLYKIKVTAGQDVYTLPYGVRSVRVDGTKFLINEKPFYFKGYGKHEDTFPNGRGINLPMNTKDISIMKWQHANSFRTSHYPYSEEMMRLCDEEGIVVIDETTAVGVNLQFGGGANFGGERIGTFDKEHGVQTQEHHKDVIRDLISRDKNHACVVMWSIANEPDSAAEGAYDYFKPLYDLARELDPQKRPCTLVSVQGTTADTDCSSQLSDVICLNRYYGWYFGGPDLEVSEIGLRKELSDWGKLGKPVMFTEYGADTVSGLHDTTSVMYTEEYQVEYYEMNNKVFDEFDFVVGEQAWNFADFATSQSLLRVQGNKKGLFTRDRKPKMVAHYFRNRWSTIPEFGYKTK
On to B7, for which, in series [1] (optimal pH 6.5, 37 °C), the Km amounted to 223 ± 8 µM, the kcat was determined as 120 ± 8 s⁻¹ and the kcat/Km turned out to be 540000 ± 20000 M⁻¹ s⁻¹.
